This experiment deals with BCL-xLΔC (BCL-xL construct lacking 22 C-terminal residues), Q07817.
Chain of BCL-xLΔC (BCL-xL construct lacking 22 C-terminal residues), Q07817 (Q07817 1-211, stated change not applied): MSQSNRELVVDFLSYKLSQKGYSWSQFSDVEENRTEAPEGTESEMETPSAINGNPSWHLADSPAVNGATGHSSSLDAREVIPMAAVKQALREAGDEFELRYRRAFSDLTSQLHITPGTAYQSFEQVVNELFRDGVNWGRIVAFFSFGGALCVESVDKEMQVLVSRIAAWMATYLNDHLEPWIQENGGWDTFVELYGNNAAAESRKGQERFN

In turn, STKKLSECLKRIGDELDSNM (modifications not checked) [BAX BH3 domain peptide] gave a Kd of 500 nM.

The term Kd denotes the constant that tells how readily two partners part at equilibrium. Low values mean a tighter complex, high ones a looser complex.

(Values after PMC4134560.)
